Results reported in CN115850461A (INST MICROBIOLOGY CAS, dated 2023).

Assays:
Assay in all cases: cell-based or functional assay
[1] = molecular target: SARS-CoV-2 Omicron BA.1.1 假病毒 S蛋白 (SARS-CoV-2 (Omicron BA.1.1))
[2] = molecular target: SARS-CoV-2 Beta 假病毒 S蛋白 (SARS-CoV-2 (Beta))
[3] = molecular target: SARS-CoV-2 Omicron BA.2 假病毒 S蛋白 (SARS-CoV-2 (Omicron BA.2))
[4] = molecular target: SARS-CoV-2 Delta 假病毒 S蛋白 (SARS-CoV-2 (Delta))
[5] = molecular target: SARS-CoV-2 Omicron BA.1 假病毒 S蛋白 (SARS-CoV-2 (Omicron BA.1))
[6] = molecular target: SARS-CoV-2 Omicron BA.4/5 假病毒 S蛋白 (SARS-CoV-2 (Omicron BA.4/5))
[7] = molecular target: SARS-CoV-2 Alpha 假病毒 S蛋白 (SARS-CoV-2 (Alpha))
[8] = molecular target: SARS-CoV-2 Omicron BA.2.75 假病毒 S蛋白 (SARS-CoV-2 (Omicron BA.2.75))

B1: 沙贝病毒广谱人源中和抗体74 (antibody, V domains shown)
VH: QVQLVQSGAQLKKPGESLKISCKGSGYNFSRYWIAWVRHMPGKGLEVMGIIYPDDSDTRYSPSVRGQVTISADKSTSIVYLQWSSLKASDTGIYYCARFGAGMTGMPRYFDTTRWFDPWGQGTQVTVSS
VL: QSVLTQPPSVSGAPGQRVTISCLGGSSNIGAGYDVHWYQHLPGAAPKLLISGNSNRPSGVPARFSGSKSGTSASLAITGLQAEDEADYYCQSYDNDLSQVFGGGTKLTVLG
[1]
  IC50, 假病毒中和: 0.2 µg/mL
[2]
  IC50, 假病毒中和: 1.62 µg/mL
[3]
  IC50, 假病毒中和: 3.49 µg/mL
[4]
  IC50, 假病毒中和: 1.7 µg/mL
[5]
  IC50, 假病毒中和: 0.91 µg/mL
[6]
  IC50, 假病毒中和: 2.81 µg/mL
[7]
  IC50, 假病毒中和: 0.76 µg/mL
[8]
  IC50, 假病毒中和: 1.7 µg/mL
